The record followed here is US20230048960A1 (University of Washington, published 2023).

Sequences and labels used below:
B1: AP502m (peptide)
peptide: Ac-RGN[dW]N[dE]S[dK]M[dN][dE][dY][dY]GW[dM]L[dM]C[dT]MGR-NH2
SMILES: CSCC[C@H](NC(=O)[C@@H](CCCCN)NC(=O)[C@H](CO)NC(=O)[C@@H](CCC(=O)O)NC(=O)[C@H](CC(N)=O)NC(=O)[C@@H](Cc1c[nH]c2ccccc12)NC(=O)[C@H](CC(N)=O)NC(=O)CNC(=O)[C@H](CCCNC(=N)N)NC(C)=O)C(=O)N[C@H](CC(N)=O)C(=O)N[C@H](CCC(=O)O)C(=O)N[C@H](Cc1ccc(O)cc1)C(=O)N[C@H](Cc1ccc(O)cc1)C(=O)NCC(=O)N[C@@H](Cc1c[nH]c2ccccc12)C(=O)N[C@H](CCSC)C(=O)N[C@@H](CC(C)C)C(=O)N[C@H](CCSC)C(=O)N[C@@H](CS)C(=O)N[C@@H](C(=O)N[C@@H](CCSC)C(=O)NCC(=O)N[C@@H](CCCNC(=N)N)C(N)=O)[C@H](C)O
B2: AP504m (peptide)
peptide: Ac-RGN[dC]N[dE]S[dK]MNEYYGW[dM]L[dM]L[dT]MGR-NH2
SMILES: CSCC[C@H](NC(=O)[C@@H](CCCCN)NC(=O)[C@H](CO)NC(=O)[C@@H](CCC(=O)O)NC(=O)[C@H](CC(N)=O)NC(=O)[C@@H](CS)NC(=O)[C@H](CC(N)=O)NC(=O)CNC(=O)[C@H](CCCNC(=N)N)NC(C)=O)C(=O)N[C@@H](CC(N)=O)C(=O)N[C@@H](CCC(=O)O)C(=O)N[C@@H](Cc1ccc(O)cc1)C(=O)N[C@@H](Cc1ccc(O)cc1)C(=O)NCC(=O)N[C@@H](Cc1c[nH]c2ccccc12)C(=O)N[C@H](CCSC)C(=O)N[C@@H](CC(C)C)C(=O)N[C@H](CCSC)C(=O)N[C@@H](CC(C)C)C(=O)N[C@@H](C(=O)N[C@@H](CCSC)C(=O)NCC(=O)N[C@@H](CCCNC(=N)N)C(N)=O)[C@H](C)O
B3: AP536m (peptide)
peptide: Ac-RGE[dL]N[dY]F[dW]MNEYYGW[dT]C[dN]M[dR]MGK-NH2
SMILES: CSCC[C@H](NC(=O)[C@@H](CCCNC(=N)N)NC(=O)[C@H](CCSC)NC(=O)[C@@H](CC(N)=O)NC(=O)[C@H](CS)NC(=O)[C@H](NC(=O)[C@H](Cc1c[nH]c2ccccc12)NC(=O)CNC(=O)[C@H](Cc1ccc(O)cc1)NC(=O)[C@H](Cc1ccc(O)cc1)NC(=O)[C@H](CCC(=O)O)NC(=O)[C@H](CC(N)=O)NC(=O)[C@H](CCSC)NC(=O)[C@@H](Cc1c[nH]c2ccccc12)NC(=O)[C@H](Cc1ccccc1)NC(=O)[C@@H](Cc1ccc(O)cc1)NC(=O)[C@H](CC(N)=O)NC(=O)[C@@H](CC(C)C)NC(=O)[C@H](CCC(=O)O)NC(=O)CNC(=O)[C@H](CCCNC(=N)N)NC(C)=O)[C@H](C)O)C(=O)NCC(=O)N[C@@H](CCCCN)C(N)=O
B4: AP503d (peptide)
peptide: Ac-RGN[dW]N[dE]S[dK]MNEYYGW[dM]L[dM]T[dC]MGR-NH2
modifications: also: disulfide-linked homodimer (Cys20 to Cys20 of other copy), disulfide at 20, other end not in the chain
B5: AP503m (peptide)
peptide: Ac-RGN[dW]N[dE]S[dK]MNEYYGW[dM]L[dM]T[dC]MGR-NH2
SMILES: CSCC[C@H](NC(=O)[C@@H](CCCCN)NC(=O)[C@H](CO)NC(=O)[C@@H](CCC(=O)O)NC(=O)[C@H](CC(N)=O)NC(=O)[C@@H](Cc1c[nH]c2ccccc12)NC(=O)[C@H](CC(N)=O)NC(=O)CNC(=O)[C@H](CCCNC(=N)N)NC(C)=O)C(=O)N[C@@H](CC(N)=O)C(=O)N[C@@H](CCC(=O)O)C(=O)N[C@@H](Cc1ccc(O)cc1)C(=O)N[C@@H](Cc1ccc(O)cc1)C(=O)NCC(=O)N[C@@H](Cc1c[nH]c2ccccc12)C(=O)N[C@H](CCSC)C(=O)N[C@@H](CC(C)C)C(=O)N[C@H](CCSC)C(=O)N[C@H](C(=O)N[C@H](CS)C(=O)N[C@@H](CCSC)C(=O)NCC(=O)N[C@@H](CCCNC(=N)N)C(N)=O)[C@@H](C)O
B6: AP537m (peptide)
peptide: Ac-RGE[dL]N[dY]F[dW]MNECYGW[dT]M[dN]M[dR]MGK-NH2
SMILES: CSCC[C@H](NC(=O)[C@@H](CCCNC(=N)N)NC(=O)[C@H](CCSC)NC(=O)[C@@H](CC(N)=O)NC(=O)[C@H](CCSC)NC(=O)[C@H](NC(=O)[C@H](Cc1c[nH]c2ccccc12)NC(=O)CNC(=O)[C@H](Cc1ccc(O)cc1)NC(=O)[C@H](CS)NC(=O)[C@H](CCC(=O)O)NC(=O)[C@H](CC(N)=O)NC(=O)[C@H](CCSC)NC(=O)[C@@H](Cc1c[nH]c2ccccc12)NC(=O)[C@H](Cc1ccccc1)NC(=O)[C@@H](Cc1ccc(O)cc1)NC(=O)[C@H](CC(N)=O)NC(=O)[C@@H](CC(C)C)NC(=O)[C@H](CCC(=O)O)NC(=O)CNC(=O)[C@H](CCCNC(=N)N)NC(C)=O)[C@H](C)O)C(=O)NCC(=O)N[C@@H](CCCCN)C(N)=O

Square brackets hold non-standard residues; d marks the D form.

Sequence of Aβ42 (P05067 672-713 limits assumed): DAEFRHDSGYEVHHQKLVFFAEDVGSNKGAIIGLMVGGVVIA

This test has as its target Aβ42 (UniProt P05067 672-713). The test can be described thus: cell-based or functional assay.
As for Ac-RGN[dW]N[dE]S[dK]M[dN][dE][dY][dY]GW[dM]L[dM]C[dT]MGR-NH2 (also: disulfide-linked homodimer via Cys19) [AP502d], the “% inhibition of fibril formation (ThT), AP:Aβ42 1:1” value is 100%; the “% inhibition of fibril formation (ThT), AP:Aβ42 1:10” value was 88.4%; the “% inhibition of fibril formation (ThT), AP:Aβ42 1:100” value (“% inhibition … AP:Aβ42 1:100” below) was 47.1%.

Consider B1, for which the “% inhibition of fibril formation (ThT), AP:Aβ42 1:1” value was found to be 23.8%; the “% inhibition of fibril formation (ThT), AP:Aβ42 1:10” value is 0%; the “% inhibition … AP:Aβ42 1:100” value worked out at 0%.

On to B2, for which the “% inhibition of fibril formation (ThT), AP:Aβ42 1:1” value is 30%; the “% inhibition of fibril formation (ThT), AP:Aβ42 1:10” value was 19.2%; the “% inhibition … AP:Aβ42 1:100” value came out at 0%.

For the molecule B3, the “% inhibition of fibril formation (ThT), AP:Aβ42 1:1” value was determined as 74.1%; the “% inhibition of fibril formation (ThT), AP:Aβ42 1:10” value came to 21.4%; the “% inhibition … AP:Aβ42 1:100” value is 0%.

Turning to B4, the “% inhibition of fibril formation (ThT), AP:Aβ42 1:1” value stood at 100%; the “% inhibition of fibril formation (ThT), AP:Aβ42 1:10” value amounted to 100%; the “% inhibition … AP:Aβ42 1:100” value was 70.1%.

In the case of Ac-RGN[dW]N[dE]S[dK]MNEYYGW[dM]L[dM]C[dT]MGR-NH2 (also: disulfide-linked homodimer via Cys19) [AP501d], the “% inhibition of fibril formation (ThT), AP:Aβ42 1:1” value was 90%; the “% inhibition of fibril formation (ThT), AP:Aβ42 1:10” value amounted to 81.4%; the “% inhibition … AP:Aβ42 1:100” value was found to be 48.2%.

As for B5, the “% inhibition of fibril formation (ThT), AP:Aβ42 1:1” value is 61.8%; the “% inhibition of fibril formation (ThT), AP:Aβ42 1:10” value was found to be 16.2%; the “% inhibition … AP:Aβ42 1:100” value came out at 0%.

On to B6, for which the “% inhibition of fibril formation (ThT), AP:Aβ42 1:1” value was found to be 54.2%; the “% inhibition of fibril formation (ThT), AP:Aβ42 1:10” value amounted to 0%; the “% inhibition … AP:Aβ42 1:100” value was found to be 0%.

On to Ac-RGE[dL]N[dY]F[dW]MNEYYGW[dT]C[dN]M[dR]MGK-NH2 (also: homodimer: Cys17 disulfide-bonded to Cys17 of other copy) [AP536d], for which the “% inhibition of fibril formation (ThT), AP:Aβ42 1:1” value turned out to be 100%; the “% inhibition of fibril formation (ThT), AP:Aβ42 1:10” value stood at 85.2%; the “% inhibition … AP:Aβ42 1:100” value came out at 43.1%.

Ac-RGE[dL]N[dY]F[dW]MNECYGW[dT]M[dN]M[dR]MGK-NH2 (also: homodimer: Cys12 disulfide-bonded to Cys12 of other copy) [AP537d]: the “% inhibition of fibril formation (ThT), AP:Aβ42 1:1” value was 90.2%; the “% inhibition of fibril formation (ThT), AP:Aβ42 1:10” value amounted to 82.3%; the “% inhibition … AP:Aβ42 1:100” value was 72%.
